Test [1] has as its target T1, mouse Pcsk9 with C-terminal his6 tag (mouse, UniProt Q80W65 35-694, limits assumed).
T1 construct: also called murine PCSK9
The test is described as follows: ELISA.

Test [2] deals with T2, human LDL-R protein (human, UniProt P01130 22-788, limits assumed).
T2 construct: Labelled with europium in the TR-FRET assay; also called hLDL-R; hLDL-R-Eu (europium-labelled)
Description: ELISA. A general note: ELISA stands for enzyme-linked immunosorbent assay.

For test [3], the target named is T3, S681X (human, UniProt Q8NBP7).
T3 construct: C-terminal truncation mutant, expressed protein; also called Pcsk9 C-term mutant S681X
Description: co-immunoprecipitation with 5P20, blot.

The target of test [4] is T4, R682X (human, UniProt Q8NBP7).
T4 construct: C-terminal truncation mutant, expressed protein; also called Pcsk9 C-term mutant R682X
T4 sequence (Q8NBP7 31-681 limits assumed): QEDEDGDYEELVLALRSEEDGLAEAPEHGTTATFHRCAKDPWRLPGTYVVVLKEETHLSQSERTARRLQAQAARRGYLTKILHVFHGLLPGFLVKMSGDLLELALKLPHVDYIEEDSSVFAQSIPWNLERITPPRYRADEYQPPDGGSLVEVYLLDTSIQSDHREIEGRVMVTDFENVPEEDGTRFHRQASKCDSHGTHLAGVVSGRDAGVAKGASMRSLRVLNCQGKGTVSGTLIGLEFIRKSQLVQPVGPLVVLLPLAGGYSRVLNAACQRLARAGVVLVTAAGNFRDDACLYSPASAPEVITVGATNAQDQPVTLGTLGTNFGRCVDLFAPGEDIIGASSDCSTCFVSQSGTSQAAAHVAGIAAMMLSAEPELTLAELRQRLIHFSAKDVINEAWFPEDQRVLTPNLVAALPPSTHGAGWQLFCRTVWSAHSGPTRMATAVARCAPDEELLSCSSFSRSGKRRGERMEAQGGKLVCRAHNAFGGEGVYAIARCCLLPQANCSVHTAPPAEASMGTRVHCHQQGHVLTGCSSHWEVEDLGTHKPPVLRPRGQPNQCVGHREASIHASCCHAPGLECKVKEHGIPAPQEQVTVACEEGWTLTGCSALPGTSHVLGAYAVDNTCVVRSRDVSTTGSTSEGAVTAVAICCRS
The test is described as follows: co-immunoprecipitation with 5P20, blot.

For test [5], the target named is T5, A685X (human, UniProt Q8NBP7).
T5 construct: C-terminal truncation mutant, expressed protein; also called C-term mutant A685X
T5 sequence (Q8NBP7 31-684 limits assumed): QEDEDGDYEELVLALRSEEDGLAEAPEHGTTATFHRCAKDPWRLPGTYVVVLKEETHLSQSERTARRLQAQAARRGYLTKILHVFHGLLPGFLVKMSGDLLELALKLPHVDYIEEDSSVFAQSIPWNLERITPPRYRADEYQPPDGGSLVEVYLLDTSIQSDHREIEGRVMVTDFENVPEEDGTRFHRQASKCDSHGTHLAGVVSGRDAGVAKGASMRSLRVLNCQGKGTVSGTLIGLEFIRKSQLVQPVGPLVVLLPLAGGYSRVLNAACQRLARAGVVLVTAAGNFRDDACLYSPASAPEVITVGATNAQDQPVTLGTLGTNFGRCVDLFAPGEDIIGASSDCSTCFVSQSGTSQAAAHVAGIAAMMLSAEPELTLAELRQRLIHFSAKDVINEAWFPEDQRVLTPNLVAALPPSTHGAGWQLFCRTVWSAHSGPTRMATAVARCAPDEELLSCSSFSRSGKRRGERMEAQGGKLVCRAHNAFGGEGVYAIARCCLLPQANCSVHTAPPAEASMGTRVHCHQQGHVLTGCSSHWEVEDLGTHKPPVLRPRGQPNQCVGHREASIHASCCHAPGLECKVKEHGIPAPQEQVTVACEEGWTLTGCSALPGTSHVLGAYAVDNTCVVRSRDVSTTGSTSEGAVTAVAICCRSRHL
The test is described as follows: co-immunoprecipitation with 5P20, blot.

For test [6], the target named is T6, H683X (human, UniProt Q8NBP7).
T6 construct: C-terminal truncation mutant, expressed protein; also called Pcsk9 C-term mutant H683X
T6 sequence (Q8NBP7 31-682 limits assumed): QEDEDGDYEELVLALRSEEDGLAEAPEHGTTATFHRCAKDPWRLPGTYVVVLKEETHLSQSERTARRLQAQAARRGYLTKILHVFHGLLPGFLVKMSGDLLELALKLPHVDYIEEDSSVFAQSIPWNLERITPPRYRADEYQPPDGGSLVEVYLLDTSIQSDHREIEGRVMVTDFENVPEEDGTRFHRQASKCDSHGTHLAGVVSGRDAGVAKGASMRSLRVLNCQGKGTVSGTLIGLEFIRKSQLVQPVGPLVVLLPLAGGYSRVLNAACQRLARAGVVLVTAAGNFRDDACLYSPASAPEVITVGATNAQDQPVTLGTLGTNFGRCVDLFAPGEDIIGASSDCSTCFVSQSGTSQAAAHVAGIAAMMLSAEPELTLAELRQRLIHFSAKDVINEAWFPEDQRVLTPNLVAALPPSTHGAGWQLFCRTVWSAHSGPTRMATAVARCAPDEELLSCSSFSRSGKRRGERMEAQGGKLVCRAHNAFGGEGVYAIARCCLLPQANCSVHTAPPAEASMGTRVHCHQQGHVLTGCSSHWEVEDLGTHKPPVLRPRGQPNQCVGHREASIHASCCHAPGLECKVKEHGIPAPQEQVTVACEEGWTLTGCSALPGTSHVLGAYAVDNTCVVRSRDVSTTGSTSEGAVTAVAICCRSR
Description: co-immunoprecipitation with 5P20, blot.

For test [7], the target named is T7, hDDR1 (human, UniProt Q08345).
T7 construct: panel antigen of the specificity ELISA
T7 sequence (Q08345 21-416 limits assumed): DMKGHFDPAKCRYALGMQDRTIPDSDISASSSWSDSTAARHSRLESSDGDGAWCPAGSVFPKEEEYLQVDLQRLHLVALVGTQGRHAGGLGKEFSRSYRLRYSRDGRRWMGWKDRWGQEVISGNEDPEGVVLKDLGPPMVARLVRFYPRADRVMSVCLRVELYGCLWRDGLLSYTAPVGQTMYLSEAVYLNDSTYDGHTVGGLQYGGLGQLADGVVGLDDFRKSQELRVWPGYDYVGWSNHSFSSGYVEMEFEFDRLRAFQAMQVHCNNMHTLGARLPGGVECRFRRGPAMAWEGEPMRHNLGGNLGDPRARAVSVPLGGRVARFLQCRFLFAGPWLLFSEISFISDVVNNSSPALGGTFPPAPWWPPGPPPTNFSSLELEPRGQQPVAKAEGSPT
Description: specificity ELISA on coated antigen (88 ng per well), antibody at 2 µg/mL, ABS650. As to the method:
For specificity ELISAs on purified human and mouse IgGs, a 384-well plate was coated with a panel of purified human or mouse antigens at 88 ng per well and incubated overnight at 4° C. The plate was blocked and washed as described above, then 22 μL of purified mouse or human anti-PCSK9 antibody diluted to 2 μg/mL in PBS was added to each well. The plate was incubated for 1 hr at 37° C. then washed with PBST. Anti-mouse Fc antibody (Jackson ImmunoResearch Labs #115-035-071) or anti-human kappa antibody (Sigma #A7164) conjugated to HRP was diluted 1:5000 in PBS (25 μL) and added to each well. The plate was incubated for 1 hr at room temperature, then washed and developed as described above.
In order to test whether the antigen specificity of the parental mouse antibody LFU720 was retained in the final Humaneered™ IgGs, LGT209, LGT210 and LGT211, binding of the antibodies to a panel of human and mouse antigens (as well as human PCSK9) was tested in an ELISA assay.

Test [8] concerns the target T8, recombinant human Pcsk9 (aa 31-692) with C-terminal his6 tag (human, UniProt Q8NBP7 31-692).
T8 construct: In the TR-FRET assay it carried a fluorophore (hPcsk9-AF); also called hPCSK9; hPcsk9
Description: SPR (Biacore S51), antibody captured by anti-mouse Fcγ, Pcsk9 in flow. The procedure: Binding studies of Pcsk9 to the LFU720 (2 μg/mL) were carried out by capturing the mouse antibody with a rabbit anti-mouse Fcγ antibody (Biacore #BR-1005-14) that was previously immobilized onto a Series S CM-5 Biacore sensor chip (certified) (Biacore #BR-1005-30). Covalent binding of the Fcγ capture antibody was done with the ‘Amine Coupling Kit’ (Biacore #BR-1000-50). The capture antibody (rabbit-anti-mouse) was attached to the EDCactivated dextran surface with a 50 μg/mL anti-Fcγ antibody solution in 10 mM sodium acetate, pH 5 (Biacore #BR-1003-51) at a flow rate of 10 μL/min. A range of concentrations of Pcsk9 from 0.5 μM to 7.8 nM (2 fold serial dilution) were flowed over the captured LFU720 chip in PBS plus 100 mM NaCl, 0.005% P20 (Biacore #BR-1000-54). The resulting sensorgrams were analyzed using the Biacore S51 Evaluation Software. Data from all concentrations was fitted globally to a 1:1 Langmuir model.
(In general: SPR reads the build-up and loss of mass on a sensor chip optically.)
Target sequence in this assay (Q8NBP7 other isoform, or with tags, fused parts or gaps limits assumed, form in doubt): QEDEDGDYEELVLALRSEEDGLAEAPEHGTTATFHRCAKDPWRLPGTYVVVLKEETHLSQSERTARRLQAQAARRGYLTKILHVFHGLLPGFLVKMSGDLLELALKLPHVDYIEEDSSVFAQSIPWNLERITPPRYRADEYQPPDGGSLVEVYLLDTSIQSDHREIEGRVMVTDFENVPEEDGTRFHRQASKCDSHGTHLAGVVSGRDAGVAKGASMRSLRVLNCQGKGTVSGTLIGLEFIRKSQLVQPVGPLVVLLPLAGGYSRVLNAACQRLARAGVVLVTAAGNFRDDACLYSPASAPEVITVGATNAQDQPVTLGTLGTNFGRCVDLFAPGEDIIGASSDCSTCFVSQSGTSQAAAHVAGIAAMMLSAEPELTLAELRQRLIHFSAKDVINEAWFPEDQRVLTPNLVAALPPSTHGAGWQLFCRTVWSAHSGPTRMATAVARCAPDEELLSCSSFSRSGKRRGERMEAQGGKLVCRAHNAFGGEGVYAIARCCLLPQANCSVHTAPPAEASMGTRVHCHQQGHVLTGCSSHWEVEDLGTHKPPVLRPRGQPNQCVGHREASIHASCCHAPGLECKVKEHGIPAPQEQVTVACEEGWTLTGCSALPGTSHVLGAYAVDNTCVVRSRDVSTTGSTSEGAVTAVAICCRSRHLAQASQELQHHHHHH

Test [9] deals with T1, mouse Pcsk9 with C-terminal his6 tag. The test is described as follows: not told in the legend.
Test [10] deals with T9, cynomolgus monkey Pcsk9 with C-terminal his6 tag (cynomolgus monkey).
T9 chain: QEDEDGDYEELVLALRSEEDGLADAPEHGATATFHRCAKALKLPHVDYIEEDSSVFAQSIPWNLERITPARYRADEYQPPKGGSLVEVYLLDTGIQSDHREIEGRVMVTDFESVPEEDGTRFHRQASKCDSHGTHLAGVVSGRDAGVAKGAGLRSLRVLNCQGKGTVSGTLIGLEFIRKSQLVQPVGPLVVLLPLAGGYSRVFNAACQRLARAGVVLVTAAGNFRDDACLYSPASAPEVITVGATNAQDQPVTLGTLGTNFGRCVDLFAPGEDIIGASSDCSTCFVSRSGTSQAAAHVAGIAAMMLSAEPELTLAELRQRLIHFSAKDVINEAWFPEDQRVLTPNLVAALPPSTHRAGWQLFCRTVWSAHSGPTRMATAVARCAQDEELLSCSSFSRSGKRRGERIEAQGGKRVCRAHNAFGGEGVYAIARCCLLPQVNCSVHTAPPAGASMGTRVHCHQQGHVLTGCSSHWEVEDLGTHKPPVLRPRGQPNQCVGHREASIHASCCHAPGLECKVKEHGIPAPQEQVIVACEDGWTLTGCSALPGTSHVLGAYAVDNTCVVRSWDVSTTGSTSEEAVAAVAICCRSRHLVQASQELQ
Description: ELISA on cyno Pcsk9his, antibody 0.03 to 30 ng/ml, Abs 650nm.

Test [11] deals with T8, recombinant human Pcsk9 (aa 31-692) …. Description: Solution Equilibrium Titration (SET), MSD read-out. The procedure:
The binding kinetics of IgGs and Fab fragments were analyzed using a Solution Equilibrium Titration (“SET”) assay. Briefly, serial dilutions of hPCSK9 were added to 60 pM IgG or Fab and incubated overnight. A 96-well Standard Bind microtiter plate (Meso Scale Discovery) was coated with 1 μg/ml hPCSK9 and incubated overnight, washed with PBS/0.05% (w/v) Tween 20, blocked with PBS/5% (w/v) BSA, and washed again. The antibody-antigen preparation was added to the PCSK9-coated Standard Bind plate and incubated for 30 min at room temperature. After three additional washing steps, Sulfo-Tag-labeled goat-anti-human-detection antibody (R32AJ-5, Meso Scale Discovery) was added and incubated one hour at room temperature. After washing the plate three times, Read Buffer (Meso Scale Discovery) was added and electrochemiluminescence (ECL) signals were measured by a Sector Imager 6000 (Meso Scale Discovery). ECL data were processed with the excel add-in XLfit 4.3.2 (ID Business Solutions) using the fitting model applicable for antibodies described in Piehler, et al., (1997) J Immunol Methods 201:189-206.

T1 sequence (Q80W65 other isoform, or with tags, fused parts or gaps limits assumed): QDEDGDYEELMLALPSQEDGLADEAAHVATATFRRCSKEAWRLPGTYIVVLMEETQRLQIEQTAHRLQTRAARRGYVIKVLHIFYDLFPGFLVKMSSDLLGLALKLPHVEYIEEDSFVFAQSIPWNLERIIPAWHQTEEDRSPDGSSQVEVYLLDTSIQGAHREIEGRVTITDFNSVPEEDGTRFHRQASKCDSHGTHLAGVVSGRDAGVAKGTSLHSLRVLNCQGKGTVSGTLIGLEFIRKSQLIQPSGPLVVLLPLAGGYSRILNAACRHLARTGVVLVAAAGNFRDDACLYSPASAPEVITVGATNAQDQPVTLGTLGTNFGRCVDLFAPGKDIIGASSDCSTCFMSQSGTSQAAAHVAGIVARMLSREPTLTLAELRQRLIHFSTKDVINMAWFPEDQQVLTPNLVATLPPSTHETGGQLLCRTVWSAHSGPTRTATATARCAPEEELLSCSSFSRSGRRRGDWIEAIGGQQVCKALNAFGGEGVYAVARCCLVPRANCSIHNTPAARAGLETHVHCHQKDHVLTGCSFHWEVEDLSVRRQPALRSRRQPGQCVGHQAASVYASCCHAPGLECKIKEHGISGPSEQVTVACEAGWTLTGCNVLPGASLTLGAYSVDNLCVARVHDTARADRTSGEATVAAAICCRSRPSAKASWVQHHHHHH
T2 sequence (P01130 22-788 limits assumed): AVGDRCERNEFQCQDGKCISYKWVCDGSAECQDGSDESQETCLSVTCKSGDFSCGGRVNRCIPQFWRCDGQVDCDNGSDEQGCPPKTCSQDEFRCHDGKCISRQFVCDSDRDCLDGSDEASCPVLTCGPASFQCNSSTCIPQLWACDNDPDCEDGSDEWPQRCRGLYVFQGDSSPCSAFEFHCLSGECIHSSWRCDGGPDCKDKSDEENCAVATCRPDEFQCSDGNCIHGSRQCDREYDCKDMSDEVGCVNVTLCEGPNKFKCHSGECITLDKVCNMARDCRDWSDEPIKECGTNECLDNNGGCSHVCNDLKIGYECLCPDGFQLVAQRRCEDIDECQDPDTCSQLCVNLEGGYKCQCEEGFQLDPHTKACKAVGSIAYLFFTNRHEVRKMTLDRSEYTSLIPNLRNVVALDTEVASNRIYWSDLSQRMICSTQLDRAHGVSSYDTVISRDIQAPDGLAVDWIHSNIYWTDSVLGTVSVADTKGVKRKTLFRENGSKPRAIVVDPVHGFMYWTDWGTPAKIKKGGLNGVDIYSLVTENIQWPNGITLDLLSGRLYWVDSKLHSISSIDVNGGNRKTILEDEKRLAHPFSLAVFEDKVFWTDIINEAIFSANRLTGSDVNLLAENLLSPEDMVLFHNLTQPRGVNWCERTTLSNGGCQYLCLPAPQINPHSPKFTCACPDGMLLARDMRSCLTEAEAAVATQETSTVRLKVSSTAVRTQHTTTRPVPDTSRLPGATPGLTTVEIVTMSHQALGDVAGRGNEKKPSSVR

B1: NVP-LFU720 (antibody, V domains shown)
VH: EVQLQQSGAELMKPGASVKLSCTASGFNIKDMYMSWVRQRPEQGLEWIGRIDPANGHTNYDPKFQAKATITTDTSSKTAYLHLSSLTSEDTAVYYCARSYYYYAMDYWGQGTSVTVSS
VL: QIVLTQSPAIMSASPGEKVTMTCSASSSVSYMHWYQQKPGSSPRLWIYLTFNLASGVPARFSGSGSGTSYSLSISSMEAEDAATYYCLQWSSDPPTFGSGTKLEIK
notes: Murine anti-human Pcsk9 IgG1-kappa monoclonal antibody from a hybridoma; also called 5P20; NVP-LFU720-AX-1
What is called Kd is the concentration at which binding is half-saturated. With B1, the binding result in [1], in test [2], in test [3], in test [4], in test [5] and in test [6] was “no binding” each time. Also, the binding result in test [7] was “no binding (tested: 2 µg/mL)”. In test [8], the Kd stood at 0.2 nM.

B2: NVP-LGT211 (antibody, human IgG1, V domains shown)
VH: QVQLVQSGAEVKKPGASVKVSCKASGYTFSTMYMSWVRQAPGQGLEWMGRIDPANEHTNYAQKFQGRVTMTRDTSISTAYMELSRLTSDDTAVYYCARSYYYYAMDYWGQGTLVTVSS
VL: QIVLTQSPATLSVSPGERATLSCRASQSVSYMHWYQQKPGQAPRLLIYGVFRRATGIPDRFSGSGSGTDFTLTIGRLEPEDFAVYYCLQWSSDPPTFGQGTKLEIKR
notes: Silent human IgG1 kappa; also called pSR74 (Vh) + pJG10 (Vk); pSR074 + pJG10
Broadly, the EC50 (read off the curve) is the concentration giving half of the maximal effect. In the case of B2, the binding result in test [9] is “no binding”; in test [7], “no binding (tested: 2 µg/mL)”. Further, the “EC50 (read off the curve)” value in test [10] was approximately 2 ng/mL. In addition, the Kd in test [11] was determined as 0.19 nM.

For the origin of these results see patent US20110142849A1 (IRM, published 2011).
